In article PMC12489471, “A multi-dentate, cooperative interaction between endo- and exo-ribonucleases within the bacterial RNA degradosome” (Nucleic Acids Research, 2025):
Read-outs that look alike come from different tables or passages of the source. Where no end group is shown, it is not given here.

B1: RNase E 511-1061 (domain or fragment, E. coli, UniProt P21513 511-1061, looked up)
chain: ALPSEEEFAERKRPEQPALATFAMPDVPPAPTPAEPAAPVVAPAPKAAPATPAAPAQPGLLSRFFGALKALFSGGEETKPTEQPAPKAEAKPERQQDRRKPRQNNRRDRNERRDTRSERTEGSDNREENRRNRRQAQQQTAETRESRQQAEVTEKARTADEQQAPRRERSRRRNDDKRQAQQEAKALNVEEQSVQETEQEERVRPVQPRRKQRQLNQKVRYEQSVAEEAVVAPVVEETVAAEPIVQEAPAPRTELVKVPLPVVAQTAPEQQEENNADNRDNGGMPRRSRRSPRHLRVSGQRRRRYRDERYPTQSPMPLTVACASPELASGKVWIRYPIVRPQDVQVEEQREQEEVHVQPMVTEVPVAAAIEPVVSAPVVEEVAGVVEAPVQVAEPQPEVVETTHPEVIAAAVTEQPQVITESDVAVAQEVAEQAEPVVEPQEETADIEEVVETAEVVVAEPEVVAQPAAPVVAEVAAEVETVAAVEPEVTVEHNHATAPMTRAPAPEYVPEAPRHSDWQRPTFAFEGKGAAGGHTATHHASAAPARPQPVE
notes: The construct is described nowhere in the methods
B2: E. coli PNPase (enzyme, UniProt P05055 1-711, looked up)
chain: MLNPIVRKFQYGQHTVTLETGMMARQATAAVMVSMDDTAVFVTVVGQKKAKPGQDFFPLTVNYQERTYAAGRIPGSFFRREGRPSEGETLIARLIDRPIRPLFPEGFVNEVQVIATVVSVNPQVNPDIVAMIGASAALSLSGIPFNGPIGAARVGYINDQYVLNPTQDELKESKLDLVVAGTEAAVLMVESEAQLLSEDQMLGAVVFGHEQQQVVIQNINELVKEAGKPRWDWQPEPVNEALNARVAALAEARLSDAYRITDKQERYAQVDVIKSETIATLLAEDETLDENELGEILHAIEKNVVRSRVLAGEPRIDGREKDMIRGLDVRTGVLPRTHGSALFTRGETQALVTATLGTARDAQVLDELMGERTDTFLFHYNFPPYSVGETGMVGSPKRREIGHGRLAKRGVLAVMPDMDKFPYTVRVVSEITESNGSSSMASVCGASLALMDAGVPIKAAVAGIAMGLVKEGDNYVVLSDILGDEDHLGDMDFKVAGSRDGISALQMDIKIEGITKEIMQVALNQAKGARLHILGVMEQAINAPRGDISEFAPRIHTIKINPDKIKDVIGKGGSVIRALTEETGTTIEIEDDGTVKIAATDGEKAKHAIRRIEEITAEIEVGRVYTGKVTRIVDFGAFVAIGGGKEGLVHISQIADKRVEKVTDYLQMGQEVPVKVLEVDRQGRIRLSIKEATEQSQPAAAPEAPAAEQGE
notes: polynucleotide phosphorylase (PNPase), E. coli; also called polynucleotide phosphorylase; full-length PNPase; source: E. coli BL21(DE3), purified (ammonium sulfate, Q, butyl-Sepharose, SEC)
B3: E. coli PNPase core, lacking S1 and KH domains (domain or fragment, UniProt P05055 1-552, looked up)
chain: MLNPIVRKFQYGQHTVTLETGMMARQATAAVMVSMDDTAVFVTVVGQKKAKPGQDFFPLTVNYQERTYAAGRIPGSFFRREGRPSEGETLIARLIDRPIRPLFPEGFVNEVQVIATVVSVNPQVNPDIVAMIGASAALSLSGIPFNGPIGAARVGYINDQYVLNPTQDELKESKLDLVVAGTEAAVLMVESEAQLLSEDQMLGAVVFGHEQQQVVIQNINELVKEAGKPRWDWQPEPVNEALNARVAALAEARLSDAYRITDKQERYAQVDVIKSETIATLLAEDETLDENELGEILHAIEKNVVRSRVLAGEPRIDGREKDMIRGLDVRTGVLPRTHGSALFTRGETQALVTATLGTARDAQVLDELMGERTDTFLFHYNFPPYSVGETGMVGSPKRREIGHGRLAKRGVLAVMPDMDKFPYTVRVVSEITESNGSSSMASVCGASLALMDAGVPIKAAVAGIAMGLVKEGDNYVVLSDILGDEDHLGDMDFKVAGSRDGISALQMDIKIEGITKEIMQVALNQAKGARLHILGVMEQAINAPRGDISEFA
notes: polynucleotide phosphorylase (PNPase), E. coli, core aa 1-552 by the methods (1-550 in the results), without the KH and S1 domains; The results and a legend give 1-550 for the core, the methods 1-552; source: E. coli Evo21(DE3), purified (Ni-NTA, intein cleavage, butyl, Q, SEC); not shown: Mycobacterium xenopi GyrA intein, C-terminal, cleaved; His8, C-terminal, cleaved

Legend:
[1] = target: T1, PNPase (Escherichia coli, UniProt P05055); type: binding, E. coli; settings: SPR, 25°C, immobilized PNPase C-His, HEPES pH 7.2, contact 60 s
T1 construct: made in house; host or cells: E. coli Evo21(DE3)
Description: Briefly, at the N-terminal of the construct, there is an Hisx6 affinity tag that will be used for affinity purification. Following the Hisx6 tag there is an maltose-binding protein (MBP) tag with a TEV cleavage site to maintain solubility of the peptides. Following the MBP tag the gene encoding the peptide is inserted, and is then followed by intein, a self-cleavable tag, followed by a choline-binding domain, which can be used for an extra step of affinity purification. […] After expression, cells were harvested, resuspended in Lysis Buffer 2 (20 mM Tris–HCl, pH 8.0, 80 mM KCl, 300 mM NaCl, 20 mM Imidazole, 0.5 mM TCEP), and lysed with a cell disruptor (Emulsiflex, Avestin). […] After subsequent rounds of washing with Ni Equilibration Buffer supplemented with, respectively, 0.1% Triton-X, 1 M NaCl, and a final wash in Ni Equilibration Buffer, samples were eluted with Ni Elution Buffer (20 mM Tris–HCl, pH 8.0, 300 mM NaCl, 300 mM imidazole, 0.5 mM TCEP). Enriched fractions were then supplemented with 100 mM β-mercaptoethanol to catalyse intein self-cleavage overnight at room temperature. Treated samples were filtered and loaded on an amylose gravity flow column, equilibrated with Amy Equilibration Buffer (20 mM Tris–HCl, pH 8.0, 20 mM NaCl, 20 mM imidazole, 2 mM β-mercaptoethanol) and after washing, His-tagged TEV protease was applied to the resin and incubated at 4°C for 2 h.
PNPase carrying a C-terminal Hisx6 tag was expressed from pExp-cis-Ec_PNP-CHis vector in E. coli Evo21(DE3) cells, induced with 0.4 mM IPTG, at 18°C overnight. After expression, cells were harvested and resuspended in Lysis Buffer 2 (20 mM Tris–HCl, pH 8.0, 80 mM KCl, 300 mM NaCl, 20 mM imidazole, 0.5 mM TCEP), and lysed with a cell disruptor (Emulsiflex, Avestin). […] After subsequent rounds of washing with equilibration buffer supplemented with 0.1% Triton-X, or 1 M NaCl, the sample was eluted with Ni PNPCHis Elution Buffer (20 mM NaH2PO4, pH 8.0, 300 mM NaCl, 300 mM KCl, 5 mM MgCl2, 300 mM imidazole, pH 7.5, 10 mM β-mercaptoethanol). […] Fractions containing PNPase were run through a HiPrep™ 26/10 Desalting Column (GE Healthcare) and buffer exchanged to Q PNPCHis A (20 mM NaH2PO4, pH 8.0, 30 mM NaCl, 10% glycerol, 0.5 mM TCEP).
Interaction measurements were made using a Biacore T200 instrument (GE) at 25°C. PNPase with a 6xHisTag at the CTD was immobilized on a Series S Sensor Chip NTA (Cytiva) to provide a signal of 5 response units (RU). […] For the SPR analysis of the point mutants, binding to PNPase was measured at four different concentrations (0, 12.5, 25, and 50 nM). All concentrations were run in duplicates. The contact time was 60 s, while the dissociation time was 120 s, at a […] flow rate. […] The chip surface was regenerated with 350 mM EDTA in water, following manufacturer's instructions. Data were processed using the manufacturer’s BIAevaluation software.

[2] = target: B2; assay: SEC-MALS; Superdex 200 10/300 Increase, 100 µl at ~1 mg/ml, 25°C; buffer A (50 mM Tris pH 7.5, 100 mM NaCl, 100 mM KCl, 0.01% w/v b-DDM, 1 mM TCEP) or B (A without b-DDM) as Table S2 tells for each sample; the 1:1 ratio is one RNase E segment to one PNPase trimer (expected mass = trimer plus one segment); settings: both partners purified
[3] = SEC-MALLS molar mass of PNPase and PNPase/RNase E complexes; type: physicochemical
Protocol: Estimation of molar masses of PNPase and the various PNPase/RNase E complexes was carried out by size-exclusion chromatography with multi-angle laser light scattering (SEC-MALLS). Proteins (100 μl at ∼1 mg/ml concentration) were loaded onto a Superdex 200 10/300 Increase GL SEC column (GE Healthcare) at 0.5 ml/min using an AKTA Purifier FPLC system ([…]). Chromatograms were acquired using UNICORN software (GE Healthcare) at 280 nm. The eluent from the S200 column was analysed with an online DAWN HELEOS II MALLS instrument with eight detectors (Wyatt Technology), followed by an Optilab T-rEX differential refractometer (Wyatt Technology) at 25°C. Data collection and analysis were performed using ASTRA 6 software (Wyatt Technology). Eluted peaks from SEC column were evaluated by Zimm Plot, using a dn/dc value of 0.1850 ml/g. Bovine serum albumin was used as a standard to confirm the system performance (Supplementary Table S1).

[4] = target: the molecule itself; assay: SEC-MALS; Superdex 200 10/300 Increase, 100 µl at ~1 mg/ml, 25°C; buffer A (50 mM Tris pH 7.5, 100 mM NaCl, 100 mM KCl, 0.01% w/v b-DDM, 1 mM TCEP) or B (A without b-DDM) as Table S2 tells for each sample; the 1:1 ratio is one RNase E segment to one PNPase trimer (expected mass = trimer plus one segment)
[5] = Superdex 200, 25°C, buffer B: A w/o bDDM

Molecule: GAAGGHTATHHASAAPARPQPVE [RNase E 1039-1061]
- KD range in words ([1]; listed as RNase E peptide 1039–1061): micromolar range
- KD range in words ([1]; listed as residues 1039–1061): low μM range

Molecule: B1
- stoichiometry N [2]: 1
- Mn number-averaged solute molar mass [3, 5]: 63,870 Da
- Mw weight-averaged solute molar mass [3, 5]: 64,020 Da
- Difference Mn from expected mass ([3]; buffer B, expected: trimer:RNase E 1:1 ratio for complexes): 4.4%

Molecule: B2
- stoichiometry N [4]: 3

Molecule: B3
- stoichiometry N [4]: 3
